Reference: the supplement of paper PMC9112550, “Optimization of the antimicrobial peptide Bac7 by deep mutational scanning” (BMC Biology, 2022)

Each sequence was assayed on Escherichia coli TOP10 (assay: shrunken log2 fold change of peptide-encoding DNA abundance (4.5 h post-induction vs induction); higher = less antimicrobial activity (less host growth inhibition)). Details: time post-induction: 4.5 h; library: site-saturation at positions 5, 18, 19, 20.
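Note: peptides expressed intracellularly from a pBAD plasmid library in pooled LB shake-flask culture, induced with 0.3% L-arabinose, DNA abundance read by NGS, three biological replicates, DESeq2 with apeglm shrinkage.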

Point of comparison: RRIRWRPPRLPRPRPRPNGKPRP, “shrunken log2 fold change” value 0.123. Against it:
- RRIRNRPPRLPRPRPRPMCEPRP — within 0.2 log units, -0.0162
- RRIRTRPPRLPRPRPRPSQMPRP — lower, -0.607
- RRIRMRPPRLPRPRPRPYHYPRP — lower, -0.638
- RRIRRRPPRLPRPRPRPPDGPRP — higher, 0.326
- RRIRWRPPRLPRPRPRPENVPRP — within 0.2 log units, 0.0417
- RRIRKRPPRLPRPRPRPGTWPRP — within 0.2 log units, 0.315
- RRIRPRPPRLPRPRPRPRHKPRP — within 0.2 log units, -0.0467
- RRIRRRPPRLPRPRPRPWIEPRP — within 0.2 log units, -0.0568
- RRIRYRPPRLPRPRPRPVWKPRP — within 0.2 log units, 0.0654
- RRIRGRPPRLPRPRPRPNCEPRP — higher, 0.376
- RRIRFRPPRLPRPRPRPLIEPRP — lower, -0.132
- RRIRWRPPRLPRPRPRPGDRPRP — higher, 0.468
- RRIRVRPPRLPRPRPRPQMQPRP — lower, -0.325
- RRIRIRPPRLPRPRPRPNSPPRP — within 0.2 log units, 0.00971
- RRIRRRPPRLPRPRPRPHCCPRP — within 0.2 log units, 0.208
- RRIRSRPPRLPRPRPRPYLDPRP — lower, -0.175
- RRIRDRPPRLPRPRPRPCKWPRP — lower, -0.203
- RRIRSRPPRLPRPRPRPYYHPRP — lower, -0.44
- RRIRDRPPRLPRPRPRPKHLPRP — within 0.2 log units, -0.0209
- RRIRKRPPRLPRPRPRPANDPRP — within 0.2 log units, 0.0931
- RRIRRRPPRLPRPRPRPNRWPRP — within 0.2 log units, 0.107
- RRIRKRPPRLPRPRPRPKGFPRP — within 0.2 log units, 0.0233
- RRIRSRPPRLPRPRPRPSAGPRP — within 0.2 log units, 0.191
- RRIRNRPPRLPRPRPRPGQSPRP — within 0.2 log units, 0.108
- RRIRHRPPRLPRPRPRPARKPRP — lower, -0.164
- RRIRERPPRLPRPRPRPAIGPRP — within 0.2 log units, 0.0473
- RRIRFRPPRLPRPRPRPPSMPRP — within 0.2 log units, 0.252
- RRIRTRPPRLPRPRPRPRLIPRP — lower, -0.113
- RRIRPRPPRLPRPRPRPMEMPRP — within 0.2 log units, -0.0174
- RRIRDRPPRLPRPRPRPKVKPRP — lower, -0.337
- RRIRFRPPRLPRPRPRPLAKPRP — within 0.2 log units, 0.182
- RRIRKRPPRLPRPRPRPCRCPRP — within 0.2 log units, 0.0976
- RRIRSRPPRLPRPRPRPQDTPRP — lower, -0.265
- RRIRKRPPRLPRPRPRPFHEPRP — lower, -0.154
- RRIRRRPPRLPRPRPRPDIYPRP — within 0.2 log units, 0.0543
- RRIRMRPPRLPRPRPRPANGPRP — within 0.2 log units, 0.094
- RRIRCRPPRLPRPRPRPYTMPRP — lower, -0.382
- RRIRFRPPRLPRPRPRPCDMPRP — within 0.2 log units, -0.00291
- RRIRPRPPRLPRPRPRPGFDPRP — within 0.2 log units, 0.131
- RRIRARPPRLPRPRPRPQAIPRP — within 0.2 log units, 0.281
- RRIRHRPPRLPRPRPRPGVFPRP — within 0.2 log units, 0.0667
- RRIRYRPPRLPRPRPRPATHPRP — lower, -0.318
- RRIRLRPPRLPRPRPRPDHTPRP — within 0.2 log units, -0.0215
- RRIRGRPPRLPRPRPRPYCAPRP — lower, -0.119
- RRIRHRPPRLPRPRPRPPMSPRP — within 0.2 log units, 0.0891
- RRIRNRPPRLPRPRPRPCMWPRP — within 0.2 log units, -0.0288
- RRIRDRPPRLPRPRPRPLILPRP — lower, -0.096
- RRIRERPPRLPRPRPRPQRHPRP — higher, 1.63
- RRIRHRPPRLPRPRPRPLNDPRP — within 0.2 log units, 0.00159
- RRIRDRPPRLPRPRPRPSDWPRP — within 0.2 log units, 0.137
- RRIRSRPPRLPRPRPRPDQIPRP — within 0.2 log units, 0.0424
- RRIRVRPPRLPRPRPRPQCEPRP — within 0.2 log units, -0.0122
- RRIRRRPPRLPRPRPRPCEMPRP — higher, 0.36
- RRIRQRPPRLPRPRPRPQNYPRP — within 0.2 log units, 0.0103
- RRIRHRPPRLPRPRPRPKFWPRP — within 0.2 log units, 0.00227
- RRIRDRPPRLPRPRPRPAKIPRP — within 0.2 log units, -0.00511
- RRIRVRPPRLPRPRPRPYDMPRP — lower, -0.382
- RRIRDRPPRLPRPRPRPHNYPRP — lower, -0.423
- RRIRARPPRLPRPRPRPRVVPRP — higher, 0.624
- RRIRTRPPRLPRPRPRPCQWPRP — lower, -0.107
- RRIRDRPPRLPRPRPRPKCRPRP — within 0.2 log units, -0.00674
- RRIRYRPPRLPRPRPRPLGWPRP — within 0.2 log units, 0.0401
- RRIRARPPRLPRPRPRPACVPRP — higher, 0.707
- RRIRVRPPRLPRPRPRPGNPPRP — lower, -0.104
- RRIRCRPPRLPRPRPRPDRAPRP — within 0.2 log units, 0.0901
- RRIRPRPPRLPRPRPRPACWPRP — higher, 0.671
- RRIRDRPPRLPRPRPRPECVPRP — higher, 1.3
- RRIRERPPRLPRPRPRPQYLPRP — within 0.2 log units, -0.0574
- RRIRYRPPRLPRPRPRPNQDPRP — lower, -0.406
- RRIRIRPPRLPRPRPRPVFLPRP — lower, -0.51
- RRIRNRPPRLPRPRPRPMHFPRP — lower, -0.145
- RRIRLRPPRLPRPRPRPTVDPRP — lower, -0.131
- RRIRPRPPRLPRPRPRPNARPRP — higher, 0.677
- RRIRKRPPRLPRPRPRPRGPPRP — higher, 1.23
